Measurements: patent publication US20200384107A1 (PRIMATOPE THERAPEUTICS, published 2020)

Tests used:
[1] = biological target: T1, human CD40, recombinant / purified (human, UniProt P25942 21-193, limits assumed); assay: kinetics on human CD40; Biacore by paragraph 276, Forte Bio with biotinylated CD40 on streptavidin biosensors by paragraph 270
T1 construct: also called hCD40; purified CD40

[2] = biological target: T2, human CD40 on human blood B cells (CD20+ cells of PBMCs) (human, UniProt P25942 21-277); assay: flow cytometry blocking assay: human B cells incubated with 2C10, then with histidine-tagged soluble CD154, read by histidine staining
T2 construct: whole, on cells; also called human CD20+ B cells; human B cells
Method: To assess the ability of 2C10 to bind to both rhesus and human CD40, recombinantly expressed human or rhesus CD40 were adsorbed to ELISA plates and reacted with varying concentrations of 2C10. Binding of 2C10 to CD40 was detected using goat anti-mouse IgG-HRP in an ELISA. […] To confirm the ability of 2C10 to block binding of its cognate ligand, CD154, rhesus and human B cells were incubated with escalating concentrations of 2C10 or an isotype control and then incubated with histidine-tagged soluble CD154 (R&D Systems, Minneapolis, Minn.) and analyzed for histidine expression.

[3] = biological target: T3, CD40 (as in Table 2, species and form not stated); assay: binding kinetics, method not stated
T3 construct: also called CD40 Receptor

[4] = biological target: T1, human CD40, recombinant / purified; assay: kinetics on human CD40, compared with murine 2C10
[5] = biological target: T4, baboon CD40-MBP fusion (baboon, UniProt P0AEX9 27-392 = MBP); assay: BIACore 3000, h2C10 amine-coupled to a CM5 chip, baboon CD40-MBP injected at 0-160 nM
T4 construct: also called CD40-MBP fusions of baboon; not shown: baboon CD40 part of the MBP fusion
Method: (§1) Humanized 2C10 antibodies (h2C10) were immobilized to the surface of CM5 chip by amine coupling. Different concentrations of CD40-MBP fusions of human, rhesus, and baboon were analyzed for affinity on a BIACore 3000. The binding affinity was calculated with BIAevaluation software version 4.1.1.

[6] = biological target: T1, human CD40, recombinant / purified; assay: kinetics on human CD40, compared with parent 2C10
[7] = biological target: T5, rhesus CD40-MBP fusion (rhesus macaque (M. mulatta), UniProt P25942 21-120 (human entry)); assay: BIACore 3000, h2C10 amine-coupled to a CM5 chip, rhesus CD40-MBP injected at 0-160 nM
T5 construct: also called CD40-MBP fusions of rhesus
T5 chain: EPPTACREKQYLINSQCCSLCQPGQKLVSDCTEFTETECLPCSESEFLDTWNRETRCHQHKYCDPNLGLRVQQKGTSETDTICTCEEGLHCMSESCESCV
Method: as §1

[8] = biological target: T6, human CD40-MBP fusion (human, UniProt P25942 21-193; P0AEX9 27-392 = MBP, limits assumed); assay: BIACore 3000, h2C10 amine-coupled to a CM5 chip, human CD40-MBP injected at 0-160 nM
T6 construct: also called CD40-MBP fusions of human
Method: as §1

[9] = biological target: T1, human CD40, recombinant / purified; assay: CD40 binding affinity, method not given; reference murine 2C10

B1: 2C10 (murine anti-CD40 monoclonal antibody) (antibody, V domains shown)
VH: QVQLQQSGAELAKPGASVKMSCKASGYTFTNYWMHWVKQRPGQGLEWIGYINPSNDYTKYNQKFKDKATLTADKSSNTAYMQLGSLTSEDSAVYYCARQGFPYWGQGTLVTVSA
VL: QIVLTQSPAIMSASPGEKVTMTCSASSSVSYMHWYHQRSGTSPKRWIYDTSKLASGVPARFSGSGSGTSYSLTISSMEAEDAATYYCHQLSSDPFTFGSGTKLEIK
notes: In some assays it was conjugated to a fluorochrome (APC); also called murine 2C10; parent 2C10 mAb
- Kd [1]: 0.222 nM
- koff [1]: 6.01e-05 s⁻¹
- kon [1]: 148000 M⁻¹ s⁻¹
- IC50 (read off the curve) [2]: ~1 mg/L
- Kd [3]: 0.273 nM
- koff [3]: 1.86e-06 s⁻¹
- kon [3]: 2730 M⁻¹ s⁻¹

B2: humanized 2C10, clone 2.189.2 (2C10_h3 + 2C10_l2) (antibody, V domains shown)
VH: QVQLVQSGAEVKKPGASVKVSCKASGYTFTNYWMHWVRQAPGQRLEWIGYINPSNDYTKYNQKFKDRATLTADKSANTAYMELSSLRSEDTAVYYCARQGFPYWGQGTLVTVSS
VL: EIVLTQSPATLSLSPGERATLSCSASSSVSYMHWYQQKPGQAPRRWIYDTSKLASGVPARFSGSGSGTDYTLTISSLEPEDFAVYYCHQLSSDPFTFGGGTKVEIK
notes: also called h2C10; mAb 2.189.2
- fold of affinity against murine 2C10 [4]: ≤ 2 fold
- Kd [1]: 0.39 nM
- koff [1]: 0.000128 s⁻¹
- kon [1]: 179000 M⁻¹ s⁻¹
- Kd [5]: 2.57 nM
- fold reduction in affinity relative to the parent 2C10 mAb [6]: ~2 fold
- Kd [7]: 2.61 nM
- Kd [8]: 4.72 nM
- fold of the affinity of murine 2C10 [9]: ≤ 2 fold
